“Also recorded” adds a separate entry of the source.
Tests used:
[1] = Methanol dehydrogenase assay of purified recombinant MDH proteins (NADH production at 340 nm); type: biochemical
Description: (§1) Alcohol dehydrogenase activities were measured spectrophotometrically essentially as described previously (Hektor, Kloosterman et al. (2002) Chem 277(49): 46966-46973) and the reaction mixture contained: 100 mM Glycine-KOH pH 9.5 (unless otherwise stated), 5 mM MgSO4, 0.5 mM NAD^+ and 500 mM alcohol (methanol, ethanol, propanol, 1,3-propanediol, or butanol). NAD^+ was substituted with equal concentrations of NADP^+, FMN^+, and FAD^+, when indicated. The reaction mixture for measurements of formaldehyde reductase activity contained: 50 mM Potassium-phosphate buffer pH=6.7, 0.15 mM NADH, 1 mM DTT and 11.6 mM (0.1-116 mM) formaldehyde. The assay components were mixed in the cuvette and pre-warmed to 45° C., unless otherwise stated. The reactions were started by addition of 5-40 μg of the purified MDH proteins, and the production of NADH was monitored at 340 nm for 4 minutes. One unit of MDH activity was defined as the amount of enzyme needed to produce 1 μmol NADH per minute under the conditions described above. Purified Act (0.1-40 μg) or NudF (20 μg) proteins were added to the reaction mixtures as indicated in the text.
(§2) The purified MDH and Act proteins (20 μg) were used in the kinetic experiments performing the methanol dehydrogenase and the formaldehyde dehydrogenase assays essentially as described above. […] For determination of the Km for NAD^+ (Km,NAD+) and Vmax, the methanol concentration was kept constant at a saturating level (500 mM), while the concentration of NAD^+ was varied (5-1000 μM). […] Act (20 μg) was added to the reaction mixtures for determination of Kμ,MεOH and Vmax values in the presence of this activator, as indicated in the text. In general, the slopes of activity versus time were linear in the measured period (data not shown). Km and Vmax values were calculated by using nonlinear regression with the Microsoft Excel solver-tool to fit the measured data to the Michaelis-Menten equation, as described previously (Jakobsen et al., (2009) Appl Environ Microbiol 75(3): 652-661). The values obtained from the regression were then compared to the values obtained from Lineweaver-Burk and Hanes-Woolf plots to ensure that the global minimum, not a local minimum, had been found.

[2] = Formaldehyde reductase assay of purified MDH proteins; type: biochemical; details: 45° C., formaldehyde reductase activity
Description: as §1, §2

[3] = Substrate specificity of purified MDH proteins on alternative alcohols; type: biochemical; details: all alternative alcohol substrates
Description: FIG. 3. Catalytic activities of purified Mdh (black), Mdh2 (dark grey) and Mdh3 (light grey) on various alcohols (200 mM) tested in vitro. (A) Substrate specificity was analysed for MDHs from B. methanolicus MGA3 in vitro. Alcohol substrates were used at concentrations of 500 mM except for pentanol (300 mM) and hexanol (50 mM). The data were calculated from the mean value from two experiments which were done in triplicate. (B) Substrate specificity for MDHs from B. methanolicus PB1 was analysed in vitro. Alcohol substrates were used at concentrations of 500 mM except for pentanol (300 mM) and hexanol (50 mM). The data were calculated from the mean value from two experiments which were done in triplicate.
Alcohol dehydrogenase activities were measured spectrophotometrically essentially as described previously (Hektor, Kloosterman et al. (2002) Chem 277(49): 46966-46973) and the reaction mixture contained: 100 mM Glycine-KOH pH 9.5 (unless otherwise stated), 5 mM MgSO4, 0.5 mM NAD^+ and 500 mM alcohol (methanol, ethanol, propanol, 1,3-propanediol, or butanol). NAD^+ was substituted with equal concentrations of NADP^+, FMN^+, and FAD^+, when indicated. […] The reactions were started by addition of 5-40 μg of the purified MDH proteins, and the production of NADH was monitored at 340 nm for 4 minutes. […]

[4] = Heat stability: pre-incubation of purified MDHs at 45° C. or 60° C. prior to the enzyme assay; type: biochemical; details: preincubation at 60° C.; compared to the remaining MDHs
Description: FIG. 5. (A) Temperature stability of MGA3 Mdh, Mdh2 and Mdh3 was tested in vitro. Enzymes were incubated at 45° C. or at 60° C. prior to the enzyme assay. (B) Temperature stability of PB1 Mdh, Mdh1 and Mdh2 was tested in vitro. Enzymes were incubated at 45° C. or at 60° C. prior to the enzyme assay.
The heat stability of the six MDHs was tested by pre-incubation of the proteins at 45° C. and 60° C. and samples were taken at different time points for enzyme assays. As expected, all enzymes retained essentially all catalytic activity upon preincubations at 45° C. (FIG. 5). […] A selection of the experiments was repeated in the presence of equal amounts of purified Act, and this had no effect on temperature stability for any of the MDHs (data not shown).

[5] = In vitro Mdh activity in crude cell extracts of recombinant E. coli; type: biochemical; details: −Act, expressed in E. coli, crude cell extract
Source text: (§3) The genes coding for Mdh and the Mdh activator protein Act were amplified from pET21a-plasmids harboring genes from B. methanolicus strains MGA3 (mdh-MGA3, mdh2-MGA3, mdh3-MGA3 and act-MGA3) and PB1 (mdh-PB1, mdh1-PB1 and mdh2-PB1). The genes were then cloned either into the pSEVA424 plasmid (mdh genes) or in the pSEVA131 plasmid (act gene). For cloning of mdh-MGA3, mdh-PB1, mdh1-PB1 and act-MGA3, EcoRI and HindIII restrictions sites were used, while mdh2-MGA3, mdh2-PB1 and mdh3-MGA3 were cloned by using EcoRI and PstI restriction sites. The resulting expression vectors were transformed into electrocompetent wt E. coli K-12 (BW25113) and into E. coli K-12 (BW25113) with a deleted frmA gene.
(§4) Expression Experiments For expression experiments, the cells were cultivated in either Luria-Bertani (LB) medium for in vitro assays or in M9 medium for in vivo assays both containing 20 μg/ml streptomycin for pSEVA424. When Act was co-expressed the medium was supplemented with 100 μg/ml ampicillin. Expression was induced when cells reached OD 0.5 (for in vitro tests) or OD 1 (for in vivo tests) by adding 0.1 mM IPTG (final concentration) for 6 hours. Cells were then harvested by centrifugation. For in vitro assays, crude cell extract was prepared by lysing the cells in a French press following ultracentrifugation. Alternatively, cells were resuspended in M9-medium without glucose for in vivo activity measurements. Enzyme Assays
In vitro measurements of Mdh activity: For determination of Mdh activity in crude cell extracts, the Mdh dependent formation of NADH was monitored at 340 nm. The assays were performed either at 37° C. or 45° C. in prewarmed buffer solutions. The Mdh assay contained 10-20 μg enzyme, 50 mM K2HPO4-buffer, pH7.4, 2.5 mM MgCl and 0.5 mM of NAD^+ (final concentrations). After 5 min of preincubation, the reaction was started with 1 M of methanol (final concentration).

[6] = In vivo Mdh activity in cell suspensions of recombinant E. coli (formaldehyde accumulating in supernatant); type: cell-based; details: 37° C., −Act; E. coli cell suspension
Source text: as §3, §4
In vivo measurements of Mdh activity: For determination of Mdh activity in cell suspensions, cells were harvested after IPTG induction, washed and resuspended in M9-medium without glucose and IPTG. OD600 was set to 1 for normalization. […] The assay was started by addition of 1 M methanol and subsequent measurement of accumulating formaldehyde in the supernatant resulting from the methanol dehydrogenase catalyzed oxidation of methanol. The calculated activities were based on the assumption that 1 l of an OD1 culture contains 0.3 g biomass of which 50% is protein.

B1: Mdh2-PB1: NAD-dependent methanol dehydrogenase encoded by chromosomal gene mdh2-PB1 of B. methanolicus PB1, SEQ ID NO. 6 (protein)
chain: MTNTQSIFYIPSVNLFGPGSVNEVGTRLAGLGVKKALLVTDAGLHGLGLSEKIASIIREAGVEVLIFPKAEPNPTDKNVAEGLEVYNAENCDSIVTLGGGSSHDAGKGIALVAANGGTIYDYEGVDKSKKPMVPLIAINTTAGTGSELTRFTIITDTERKVKMAIVDKHVTPTLSINDPELMVGMPPSLTAATGLDALTHAIEAYVSTAATPITDALAIQAIKIISKYLPRAFANGKDMEAREQMAFAQSLAGMAFNNASLGYVHAIAHQFGGFYNFPHGVCNAILLPHVCRFNLISKVERFAEIAALLGENVAGLSTREAAEKGIKAIERMAKDLNIPRGFKELGAKEEDIVTLAENAMKDATALTNPRKPKLEEVIQIIKNAM
modifications: Bacillus methanolicus PB1
- Vmax, variable substrate Methanol + Act ([1]; 45° C., pH 9.5, 20 μg MDH + 20 μg Act): 0.24 U/mg
- Km ([1]; 45° C., pH 9.5, 20 μg MDH + 20 μg Act, read-out: Km, variable substrate Methanol + Act): 36 mM
- Vmax, variable substrate Methanol ([1]; 45° C., pH 9.5, absence of Act): 0.065 U/mg
- reduction of Km,MeOH in the presence of Act ([1]; Act added vs. no Act): 4 fold
- Vmax, variable substrate Formaldehyde [2]: 1.12 U/mg
- Km ([2]; read-out: Km, variable substrate Formaldehyde): 1.3 mM
- catalytic activity on alternative alcohols compared with the remaining MDHs [3]: significantly higher catalytic activity than the remaining enzymes
- temperature stability in vitro (in words) [4]: Higher Temperature Stabilities; also recorded: only moderate negative effects; also recorded: improved thermostability
- In vitro activity ([5]; 37° C.): 33 mU/mg
- In vitro activity ([5]; 45° C.): 103 mU/mg
- In vivo activity [6]: 3 mU/mg
